Values belong to the molecule of their own block, whether it stands above or below them. *1 amine or outer side, *2 acyl side, *3 side chain or, on linkers, in order; H or OH if unused. Where no end group is shown, it is not given here. [ ]: non-standard residue; d: D form. The star is where a group is joined. 1‑pHis = 1-phosphohistidine, O=C([C@H](Cc1cncn1P(=O)(O)O[*:3])N[*:1])[*:2]; Biotin = O=C1N[C@H]2[C@H](CS[C@H]2CCCCC(=O)*)N1
What was measured:
[1] = Stability of 1- and 3-pHis peptides with and without pHis mAbs (BLI read-out); format: physicochemical; conditions: phosphorylated ACLYana, 0-24 h, no pHis mAbs; read-out BLI signal at end of association, normalized to 0 h
Protocol: Next, we examined the ability of these Fabs to recognize phosphorylated substrates using differential scanning fluorimetry (DSF).
Fig. S6. Stability of 1- and 3-pHis peptides in the presence of pHis mAbs. In the BLI experiment, analytes were SC50-3 (A and B) and SC44-8 (C and D) Fabs and ligand was the ACLYana peptide.
Prior to the experiment, the peptide was phosphorylated with phosphoramidate and divided into two sets - set A and set B. The set A peptide was incubated with 1- and 3-pHis mAbs separately for extended periods of time (0 - 24 h) and set B was not incubated with pHis mAbs. The ACLYana-pHis peptide incubated with the mixture of 1-pHis IgGs (A, continuous lines) and 3-pHis IgGs (C, continuous lines) has the higher signal intensity at all time points compared to […]
(discontinuous lines). The BLI signal intensity at the end of association phase was used to compare the rate of hydrolysis with (set A) and without incubation with pHis mAbs (set B). The signal intensities were normalized to the 0 h (B and D). The unphosphorylated peptide was used as a […]
the rate of dephosphorylation. In the absence of pHis mAb incubation, 1-pHis peptide hydrolyzed […]
(1 picture or pasted object on this page, not shown here)

[2] = substrate: SCS peptide, 1-pHis form; test: BLI; biotinylated pHis peptides (20 nM) on streptavidin biosensors, Fab in solution at varying concentrations; 50 mM Hepes pH 8.0, 150 mM NaCl, 0.05% Tween-20, 0.2% BSA; Octet RED96e; global fit to a 1:1 Langmuir model
[3] = target: T1, ACLY peptide, 1-pHis form; test: as above
T1 sequence (peptide, biotin on the N-terminus; C-terminal amide; 1-phosphohistidine at position 5): VQFGHAGAC

[4] = target: T2, NM23 peptide, 1-pHis form; test: as above
T2 sequence (peptide, biotin on the N-terminus; C-terminal amide; 1-phosphohistidine at position 5): RNIIHGSDS

[5] = target: T3, Common-His peptide, 1-pHis form; test: as above
T3 sequence (peptide, biotin on the N-terminus; C-terminal amide; 1-phosphohistidine at position 5): GEQLHDLNA

[6] = test system: ACLYana-1-pHis peptide (AGAG-1-pHis-AGAG); test: BLI binding kinetics of 1-pHis Fabs with affinity-purified pHis peptide; conditions: for ka / kd / Kd: BLI, 1:1 Langmuir global fit, triplicate; for ka / kd: affinity-purified ACLYana-1-pHis peptide; for Kd: ACLYana phosphorylated with phosphoramidate (8 h, 23 °C), 1-pHis isomer affinity-purified on 1-pHis IgG column, immobilized on streptavidin biosensors, Hepes pH 8.0; for affinity to 1-pHis peptides, times weaker than the 1-pTza peptides: ratio of BLI KD, 1-pHis versus 1-pTza peptide
Protocol: (§1) Biolayer interferometry (BLI) studies were performed to determine the relative affinity of pHis Fabs to in situ phosphorylated His peptides versus the phosphomimetic substrates. The N-terminally biotinylated peptides were immobilized on streptavidin biosensors and the rate of association (ka) and dissociation (kd) were determined by varying the pHis Fab concentration. Equilibrium dissociation constants (KD) were determined by fitting the experimental data to a 1:1 Langmuir binding model. ACLYana-1-pTza and ACLYana-3-pTza peptides were used to determine affinity to 1-pHis and 3-pHis Fabs, respectively (Fig. 3 A–E and Table 1). […] The two isomers were separated from each other by passing the reaction through affinity columns containing 1-pHis mAbs using SC1-1 or SC50-3 IgGs or 3-pHis mAbs using SC39-4, SC44-8, and SC56-2 IgGs. The eluates thus contained either predominantly 1-pHis or 3-pHis peptides. These peptides were used to determine the affinity to their respective isomer class of pHis Fabs (Fig. 3 F–J, Table 1, and SI Appendix, Fig. S5). […] This experimental observation is well supported by the higher number of hydrogen bonds that support the SC44-8:3-pTza interaction compared to other pHis Fabs (SI Appendix, Table S5). […] There are at least three reasons for the lower affinity of the mAbs for pHis peptides compared to pTza peptides: The continuous hydrolysis of phosphate from the pHis peptides during the course of the experiment (SI Appendix, Fig. S6), a reduction in the number of hydrogen bond interactions due to one less nitrogen in the imidazole ring compared to triazolyl ring (Fig. 4 and SI Appendix, Fig. S8), and inherently different electronic properties of the imidazole and triazolyl rings in His and Tza, respectively ([20]).
(§2) Fig. 3. Binding kinetics of pHis Fabs with cognate pTza and pHis peptides. BLI studies of immobilized peptides (ACLYana-1/3-pTza and phosphorylated ACLYana) with varying concentrations of the pHis Fabs were carried out in triplicate on an Octet Red96e instrument (FortéBio). SC1-1 (A) and SC50-3 (B) pHis Fab interaction with their ACLYana-1-pTza peptides. SC39-4 (C), SC44-8 (D), and SC56-2 (E) pHis Fabs interactions with ACLYana-3-pTza peptides. SC1-1 (F), SC50-3 (G), SC39-4 (H), SC44-8 (I), and SC56-2 (J) pHis Fabs interactions with their affinity-purified ACLYana-pHis peptides are represented, Right. The experimental data are represented in the black dashed lines and the nonlinear least-squares fitting was represented in the red continuous lines. The χ^2 for the goodness of fit is under 1.0 for the all the plots.
(§3) The binding kinetics of pHis Fabs with the peptides (pTza and pHis) were evaluated with an Octet RED96e (FortéBio). Streptavidin-coated biosensors (FortéBio) were presoaked in buffer containing 50 mM Hepes pH 8.0, 150 mM NaCl, 0.05% Tween-20, and 0.2% BSA for 15 min. The biotinylated pTza peptides or pHis peptides (20 nM) with and without phosphoramidate treatment were coated onto these streptavidin biosensors and analyzed for their binding to varying concentrations of the pHis Fabs with an association time of 120 s and dissociation time of 200 s. The entire set of experiments was repeated three times. The data were analyzed using the Octet software (FortéBio) and the rates of association and dissociation were obtained by global fitting data to the 1:1 Langmuir interaction model.
Supplementary methods and materials
Peptide Synthesis. Peptides used for the crystallization were synthesized at Sanofi as described in Fuhs et al. (1). Peptides used in the DSF and BLI experiments were synthesized by the Salk Peptide Synthesis Core. These peptides were N-terminally biotinylated and C-terminally amidated. They were synthesized using standard Fmoc chemistry on a Gyros Protein Technologies Tribute peptide synthesizer with UV monitoring. Following the deprotection, peptides were analyzed by mass spectrometry and analytical HPLC by the Proteomics Core at […]
Salk. […]

[7] = target: ACLYana-1-pTza peptide (AGAG-1-pTza-AGAG); test: BLI binding kinetics of 1-pHis Fabs with cognate pTza peptide; conditions: triplicate; for Kd: BLI Octet RED96e, N-terminally biotinylated peptide (20 nM) on streptavidin biosensors, varying Fab concentration, 50 mM Hepes pH 8.0, 150 mM NaCl, 0.05% Tween-20, 0.2% BSA, association 120 s, dissociation 200 s, global fit 1:1 Langmuir; for ka / kd: BLI, immobilized biotinylated ACLYana-1-pTza, 1:1 Langmuir global fit
Protocol: as §1, §2, §3

[8] = target: ACLY peptide, phosphorylated, 3-pHis form; test: BLI; N-terminally biotinylated peptides (20 nM) on streptavidin biosensors, varying concentrations of Fab in solution; 50 mM Hepes pH 8.0, 150 mM NaCl, 0.05% Tween-20, 0.2% BSA; association 120 s, dissociation 200 s; global fit to a 1:1 Langmuir model; Octet RED96e; in triplicate
[9] = target: T4, ACLYana-3-pHis peptide (AGAG-3-pHis-AGAG); test: as above
T4 sequence (peptide, 3-phosphohistidine at position 5; biotin on the N-terminus): AGAGHAGAG

[10] = target: ACLYana-3-pTza peptide (AGAG-3-pTza-AGAG); test: as above
[11] = substrate: SCS peptide, phosphorylated, 3-pHis form; test: as above
[12] = substrate: SCS peptide, 3-pHis form; test: BLI; biotinylated pHis peptides (20 nM) on streptavidin biosensors, Fab in solution at varying concentrations; 50 mM Hepes pH 8.0, 150 mM NaCl, 0.05% Tween-20, 0.2% BSA; Octet RED96e; global fit to a 1:1 Langmuir model
[13] = target: T5, ACLY peptide, 3-pHis form; test: as above
T5 sequence (peptide, biotin on the N-terminus; C-terminal amide; 3-phosphohistidine at position 5): VQFGHAGAC

Molecule: 1-pHis peptide: 1-pHis isomer of phosphorylated ACLYana peptide (Biotin-AGAG[1‑pHis]AGAG)
hydrolysis of pHis peptide in the absence of pHis mAb incubation [1]: faster than 3-pHis peptide

Kd [2]: 411 nM
koff [2]: 0.0147 s⁻¹
kon [2]: 35800 M⁻¹ s⁻¹
Kd [3]: 194 nM
koff [3]: 0.0247 s⁻¹
kon [3]: 127000 M⁻¹ s⁻¹
Kd [4]: 362 nM
koff [4]: 0.0176 s⁻¹
kon [4]: 48500 M⁻¹ s⁻¹
Kd [5]: 336 nM
koff [5]: 0.0243 s⁻¹
kon [5]: 72200 M⁻¹ s⁻¹
B1: SC50-3 Fab (Fab, V domains shown)
VH: QSVKESEGGLFKPTDTLTLTCTASGFSLNGYGVIWVRQAPGKGLEWIGSAGAYGRIYYPNWARSRATITRNTNLNTVSLKMTSLTAADTATYFCARRTNVSTSVGFDSWGPGTLVTVSS
VL: DMTQTPSSKSVPVGDTVTINCQASESVYSNNRLSWFQQKPGQPPKLLIYLVSTLASGVPSRFKGSGSGTQFTLTISDVVCDDAATYYCVGYKSSTTDGLAFGGGTEVVVK

ka [6]: 175000 ± 1010 M⁻¹ s⁻¹
kd [6]: 0.00494 ± 1.06e-05 s⁻¹
Kd [6]: 28.3 nM
affinity to 1-pHis peptides, times weaker than the 1-pTza peptides [6]: two to four times weaker
Kd [7]: 16 nM
ka [7]: 85100 ± 303 M⁻¹ s⁻¹
kd [7]: 0.00136 ± 3.19e-06 s⁻¹
B2: SC50-3: Fab of rabbit 1-pHis monoclonal antibody, expressed with SC50-3 heavy chain and SC1-1 light chain (antibody, V domains shown)
VH: B1 VH
VL: B1 VL

ka [6]: 97300 ± 551 M⁻¹ s⁻¹
kd [6]: 0.00925 ± 1.33e-05 s⁻¹
Kd [6]: 95.1 nM
affinity to 1-pHis peptides, times weaker than the 1-pTza peptides [6]: two to four times weaker
Kd [7]: 24.8 nM
ka [7]: 81300 ± 347 M⁻¹ s⁻¹
kd [7]: 0.00199 ± 3.19e-06 s⁻¹
B3: SC1-1: Fab of rabbit monoclonal antibody that recognizes 1-pHis (antibody, V domains shown)
VH: QSVEESEGGLFKPTDTLTLTCTASGFSLSGHGVIWVRQAPGKGLEWIGSAGAYGRIYYASWAKSRSTITRNTNLNTVTLKMTSLTAADTATYFCARRSDVGTSVGFDSWGPGTLVTISS
VL: B1 VL

BLI signal intensity for the association [8]: 0.5 nm
BLI signal intensity for the association [9]: 2 nm
Kd [9]: 18.2 nM
koff [9]: 0.0017 s⁻¹
kon [9]: 93600 M⁻¹ s⁻¹
Kd [10]: 0.235 nM
koff [10]: 3.66e-05 s⁻¹
kon [10]: 156000 M⁻¹ s⁻¹
BLI signal intensity for the association [11]: 0.5 nm
Kd [12]: 467 nM
koff [12]: 0.0137 s⁻¹
kon [12]: 29300 M⁻¹ s⁻¹
Kd [13]: 348 nM
koff [13]: 0.00972 s⁻¹
kon [13]: 28000 M⁻¹ s⁻¹
B4: SC44-8 Fab (Fab, V domains shown)
VH: QSVKESGRGLVQPGGSLTLTCTASGFSIDSYGFSWVRQAPGKGLEHIGYLTAGGRAFYASWAKSRSTITRNTNENTVTLKMTSLTAADTATYFCAKLGSGNPVAIWGPGTLVTVSS
VL: QVLTQTPSFTSAAVGGTVTINCQSSQSVWRNKNLAWYQQKPGQPPKRLIYAIATLDSGVPSRFSGSGSGTQFTLTISDVQCDDAATYYCVGHYGSENDAYYAFGGGTEVVVK

From article PMC8017925, “Structural basis for differential recognition of phosphohistidine-containing peptides by 1-pHis and 3-pHis monoclonal antibodies” (Proceedings of the National Academy of Sciences of the …, 2021)
